Results on 104 substances are retold here after the supplement of paper PMC12042874.

± gives the uncertainty stated by the source.

The data set is described as follows: amyloid nucleation score (Sup35N fusion, yeast selection) (log enrichment); library NNK2; higher = more nucleation; inactive = no reads after selection. The procedure, abridged:
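On medium lacking adenine and uracil, psi-negative yeast expressing peptides of 20 random codons fused to Sup35N were grown 7 days at 30°C after a 24-hour induction with 100 μM copper sulfate. Illumina sequencing of input and output plasmid inserts gave the reads, and sequences under 100 input reads were excluded. The nucleation score is the DiMSum log enrichment of output over input reads, centred on the mode score of non-aggregating sequences.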
On to SKKTIVFGGTIRTTALPGPG, for which the amyloid nucleation score is -0.592 ± 0.76. Consider SKLRFAIIFAKHVS, for which the amyloid nucleation score was -0.322 ± 0.41.

The substance SKLTRSIENLLF came in with an amyloid nucleation score of 0.949 ± 0.15.

As for SKMCCDMYISISCIIWSARR, the amyloid nucleation score came to 0.352 ± 0.32.

In turn, SKMWTIRYFSLVRCLHGLLN returned an amyloid nucleation score of -0.985 ± 0.45. Consider SKMYMPAVWMDGPSPQTTMW, for which the amyloid nucleation score worked out at 0.73 ± 0.37. With SKSEIHCYLMMGRHLFG the figure was 4.5 ± 0.11; with SKVLKRACYGAAGPFRIVHV, 3.29 ± 0.082; with SKVLNGFYIWYHQVPQLYPL, -1.19 ± 1. For SLCLLIALSRWSIAS the value was 1.14 ± 0.3; for SLDGISHHSTDVNLVLNCYR, 5.222 ± 0.045. With SLDNWFTDSRAGVGLVFS the figure was -0.277 ± 1. Substance SLEDCYCDRVI displayed an amyloid nucleation score of -0.528 ± 0.34. For SLESSLAYVGSLGIAGGSAQ the value was 1.11 ± 0.23. For SLFAVQTVVEVVVHV the value was 0.762 ± 0.41. As to SLFCVPSSRKVLFLGRTVVV, the amyloid nucleation score turned out to be 0.123 ± 1.

Substance SLFLDDKEWMKGITKFLMDP registered an amyloid nucleation score of 0.419 ± 0.51. With SLFTTINARNATAEQCSMQT the figure was 0.502 ± 0.21; with SLGEGISFIVWCDGILLLGC, -1.15 ± 0.76.

For the substance SLGHDSICWRWSLE, the amyloid nucleation score worked out at 5.49 ± 0.094. For SLIDLLPCFFICRGRCFPSV the value was -0.672 ± 0.37; for SLLHPFLTVGVCMCRYGVNI, 1.81 ± 0.083; for SLLLFIYQMDRLVVASMLTN, -0.651 ± 1.1. For SLLLMDYFLYYYLSVEKRQR the value was “inactive”; for SLLLYYMGGK, 5.114 ± 0.042. With SLMFGLIHSWDMK, the amyloid nucleation score entry was “inactive”.

For the substance SLNLFV, the amyloid nucleation score was -0.901 ± 0.78. For SLPCRIISNLYLPA, the amyloid nucleation score is -1.23 ± 1.1. Turning to SLPFTLLNKSAHWNSLWFPG, the amyloid nucleation score is -1.24 ± 1.1. For SLPIWVRSRVEGLQERISWL the value was 0.364 ± 0.5; for SLPSRYWVSLFCTSLLW, 0.743 ± 0.81; for SLQSSYEYINPRSLLHCSHL, -1.44 ± 0.49.

SLQYRTSDSQWYVVYCSQEP yielded an amyloid nucleation score of 0.484 ± 0.19. For SLRWL the value was -0.18 ± 0.74; for SLRYSMRPMAFRFKHPLAPT, -0.166 ± 0.28; for SLSLGLSSCEPYYAVC, -0.276 ± 0.28. For SLSNVLINCVLVFCW the value was 6.53 ± 0.076; for SLSRLVLECNGKSVRHEKM, 0.393 ± 0.32. For SLVFNQAHWNRLIPTT the value was -1.02 ± 0.63; for SLVNYPMKVIGVVRKFW, 2.08 ± 0.13; for SLVVPDRYVNARYCNCCYGG, 0.43 ± 0.65.

On to SLYCGGQMLD, for which the amyloid nucleation score entry was “inactive”.

SMATSSYMLSAMRTCTLRSV showed an amyloid nucleation score of -0.231 ± 0.63. With SMFCVPFMINLVLYVMGEVW the figure was 0.288 ± 0.64; with SMILT, -1.11 ± 1.1; with SMMKLDEYI, -1.17 ± 0.78.

SMNVDTPCSGRWV displayed an amyloid nucleation score of -0.249 ± 1.1. With SMRVECF the figure was -1.82 ± 1.1; with SMRYVVISKQRSILEISLRY, 3.46 ± 0.047. For SMSIWSFYIAP the value was 4.59 ± 0.066; for SMSIYKAAYSFVTGSP, 7.475 ± 0.026.

Consider SMSYTS, for which the amyloid nucleation score came out at 0.617 ± 0.14. For SMTCRDLFSWYGSWYQSILF the value was 0.874 ± 0.47; for SMYSVYSFYTEIGTL, -0.441 ± 0.48; for SNAVNCLLCVLTRDLIWMDA, 8.958 ± 0.067. For SNEKVAQSLFAKEREPLRGN the value was 2.35 ± 0.12; for SNGTWLKNLGGPPPGRAMPW, 0.419 ± 0.34. The substance SNLNLFITYLTLSTNDR yielded an amyloid nucleation score of 9.225 ± 0.042. For SNNAI the value was 0.476 ± 0.56.

Regarding SNNWSLDMRRPVFKPPYGEG, the amyloid nucleation score was -0.744 ± 0.53. With SNSDIWHNARHPIDLATYC the figure was 0.293 ± 0.61; with SNSKVSVLIFFSAHKGECAA, “inactive”; with SNVSGCMELFNWVGYFPVSP, -0.733 ± 0.62. On to SNVTTYSNVSYIRHHSHYLG, for which the amyloid nucleation score was found to be 1.32 ± 0.44. Substance SNVYYRVC showed an amyloid nucleation score of 4.72 ± 0.084.

SNYDGPGSYIYEKYCSSEEG: the amyloid nucleation score was -0.703 ± 1.

For SNYSTGHGAGMEDRRLEMGG, the amyloid nucleation score stood at 0.717 ± 0.49. Substance SNYVSTHRIWFGYSWCKQEK came in with an amyloid nucleation score of 4.24 ± 0.13. SPACLNS came in with an amyloid nucleation score of 4.58 ± 0.053. With SPFFVMLIITFTRMVEDLRM the figure was -0.683 ± 1.1; with SPIYYIKGYFLLISKCFADR, 4.56 ± 0.073. For SPPLYARHCYILERITTDRM the value was -1.73 ± 0.62; for SPQLTIYPRMYSRSLVLNRC, 0.078 ± 0.77; for SPSDAL, -0.578 ± 0.36. On to SPTCWRRRTPLIVKYRFISV, for which the amyloid nucleation score turned out to be 1.15 ± 0.34. On to SQGCVICGFYLLWHPNRHCQ, for which the amyloid nucleation score turned out to be 9.447 ± 0.051. With SQGGIRWY the figure was -0.842 ± 0.38; with SQIRGESSYYCLPSFSLLFF, 6.215 ± 0.057; with SQSMNGRQMHLYDRPSTGWF, “inactive”.

In the case of SRCASKFVTWEAYYTVSVKR, the amyloid nucleation score turned out to be 0.25 ± 0.8.

The substance SRFCVRRLTVYRRSV registered an amyloid nucleation score of 0.43 ± 0.45. With SRFISLSSEDVSALNTCNNR the figure was 1.25 ± 0.61; with SRFLARQLLKSASLRLFVET, -0.159 ± 0.35. SRFPGCSVSTGRHRTKVSSR came in with an amyloid nucleation score of 0.177 ± 0.43. For SRFRGKLCFGWHKYAFGEVF the value was -0.711 ± 0.79; for SRICMKWDSSNLWSF, “inactive”; for SRIMALTMCFYTNRGRELVN, -1.19 ± 0.38.

The substance SRLMVGGQSLVSW showed an amyloid nucleation score of 5.716 ± 0.042.

As to SRLRNYLKVLSD, the amyloid nucleation score was -0.474 ± 1.1. With SRLSKTRLPFWHFMNMLKMP the figure was 0.126 ± 0.56; with SRNLTVNK, -0.072 ± 0.79; with SRSCVKH, -1.27 ± 0.55. For SRSKGYLYGIMSAKLRCSLK the value was 0.206 ± 0.39; for SRWKGSRF, 0.764 ± 0.26; for SRWLGAKCSSRC, -0.361 ± 0.48.

SRYSFYLRFHVLSVMAVQML came in with an amyloid nucleation score of 0.688 ± 0.81. For SSANDNLNTERDQARLVTRC the value was -0.013 ± 0.36; for SSASALMKLVMMY, -0.003 ± 0.22. With SSATFYT the figure was 1.43 ± 0.26; with SSAWLDLDIMLGLFVIVFTP, 5.439 ± 0.044; with SSDNRFCVDDFEVGVCGVMR, 2.84 ± 0.07. As for SSDNTQYTETRYSYGFLIKL, the amyloid nucleation score was 0.776 ± 0.56.

The substance SSFFRISS showed an amyloid nucleation score of -0.907 ± 1. For the substance SSFWFSGAADINRVVLRGIE, the amyloid nucleation score was -0.175 ± 0.32.
